Values quoted from earlier work, collected in patent publication US8021659B2, “Coenzyme Q10, lactoferrin and angiogenin compositions and uses thereof” (Naidu LP, priority 2006, dated 2011).

Tests used:
osteoblasts = conditions: up to

B1: LF: 79-kDa glycoprotein present in every mucosal secretion of the human body; metal-transport protein (protein, UniProt P02788 20-710, looked up)
Lactotransferrin: GRRRSVQWCAVSQPEATKCFQWQRNMRKVRGPPVSCIKRDSPIQCIQAIAENRADAVTLDGGFIYEAGLAPYKLRPVAAEVYGTERQPRTHYYAVAVVKKGGSFQLNELQGLKSCHTGLRRTAGWNVPIGTLRPFLNWTGPPEPIEAAVARFFSASCVPGADKGQFPNLCRLCAGTGENKCAFSSQEPYFSYSGAFKCLRDGAGDVAFIRESTVFEDLSDEAERDEYELLCPDNTRKPVDKFKDCHLARVPSHAVVARSVNGKEDAIWNLLRQAQEKFGKDKSPKFQLFGSPSGQKDLLFKDSAIGFSRVPPRIDSGLYLGSGYFTAIQNLRKSEEEVAARRARVVWCAVGEQELRKCNQWSGLSEGSVTCSSASTTEDCIALVLKGEADAMSLDGGYVYTAGKCGLVPVLAENYKSQQSSDPDPNCVDRPVEGYLAVAVVRRSDTSLTWNSVKGKKSCHTAVDRTAGWNIPMGLLFNQTGSCKFDEYFSQSCAPGSDPRSNLCALCIGDEQGENKCVPNSNERYYGYTGAFRCLAENAGDVAFVKDVTVLQNTDGNNNEAWAKDLKLADFALLCLDGKRKPVTEARSCHLAMAPNHAVVSRMDKVERLKQVLLHQQAKFGRNGSDCPDKFCLFQSETKNLLFNDNTECLARLHGKTTYEKYLGPQYVAGITNLKKCSTSPLLEACEFLRK
**Q.** For B1, which “time to peak level in plasma” value (absorption in the intestinal tract) is on record?
**A.** ≤ 2 h

**Q.** And the “mean fractional catabolic rate” value (elimination from the plasma by liver and spleen)?
**A.** 5.7 day⁻¹

**Q.** What about the “reduction of the rate at which osteoblasts die” value (osteoblasts) of the same molecule?
**A.** 50-70%
